Source: paper PMC7610691 (Nature structural & molecular biology, 2020)

How the values were obtained:
[1] = target: T1, Ycs4 (S. cerevisiae condensin HEAT-repeat subunit) (S. cerevisiae, UniProt Q06156 1-1176); experiment: cryo-EM structure
T1 sequence: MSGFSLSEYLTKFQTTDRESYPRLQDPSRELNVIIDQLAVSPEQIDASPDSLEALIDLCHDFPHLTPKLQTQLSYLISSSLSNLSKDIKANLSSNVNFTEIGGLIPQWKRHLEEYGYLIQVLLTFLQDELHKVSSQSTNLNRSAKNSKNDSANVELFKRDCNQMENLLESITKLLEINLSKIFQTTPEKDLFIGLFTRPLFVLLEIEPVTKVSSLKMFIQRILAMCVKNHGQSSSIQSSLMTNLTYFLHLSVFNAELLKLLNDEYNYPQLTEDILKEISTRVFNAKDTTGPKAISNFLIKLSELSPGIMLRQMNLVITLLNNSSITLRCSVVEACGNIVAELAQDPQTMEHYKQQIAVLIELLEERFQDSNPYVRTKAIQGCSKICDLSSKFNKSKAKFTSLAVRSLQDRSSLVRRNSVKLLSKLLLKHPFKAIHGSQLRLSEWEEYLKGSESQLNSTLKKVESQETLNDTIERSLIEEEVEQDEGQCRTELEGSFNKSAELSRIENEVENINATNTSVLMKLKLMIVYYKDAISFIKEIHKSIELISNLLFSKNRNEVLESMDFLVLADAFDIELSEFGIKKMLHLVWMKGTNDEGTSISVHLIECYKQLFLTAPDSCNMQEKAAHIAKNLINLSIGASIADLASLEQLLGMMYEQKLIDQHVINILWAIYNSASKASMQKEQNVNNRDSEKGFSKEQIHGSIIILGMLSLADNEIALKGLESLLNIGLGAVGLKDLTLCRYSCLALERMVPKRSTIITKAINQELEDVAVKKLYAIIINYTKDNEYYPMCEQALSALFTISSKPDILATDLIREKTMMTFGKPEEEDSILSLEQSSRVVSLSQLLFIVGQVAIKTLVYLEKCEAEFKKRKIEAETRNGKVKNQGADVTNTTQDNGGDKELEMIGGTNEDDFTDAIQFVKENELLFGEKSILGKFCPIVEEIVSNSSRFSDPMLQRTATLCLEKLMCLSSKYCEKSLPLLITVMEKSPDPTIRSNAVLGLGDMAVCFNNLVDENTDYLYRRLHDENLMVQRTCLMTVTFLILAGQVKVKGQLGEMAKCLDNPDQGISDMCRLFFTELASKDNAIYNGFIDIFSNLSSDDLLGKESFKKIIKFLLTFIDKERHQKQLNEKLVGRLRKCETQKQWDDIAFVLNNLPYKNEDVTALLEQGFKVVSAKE

[2] = target: T2, Ycg1 (S. cerevisiae condensin HEAT-repeat subunit) (S. cerevisiae, UniProt Q06680 1-1035); experiment: cryo-EM structure
T2 sequence: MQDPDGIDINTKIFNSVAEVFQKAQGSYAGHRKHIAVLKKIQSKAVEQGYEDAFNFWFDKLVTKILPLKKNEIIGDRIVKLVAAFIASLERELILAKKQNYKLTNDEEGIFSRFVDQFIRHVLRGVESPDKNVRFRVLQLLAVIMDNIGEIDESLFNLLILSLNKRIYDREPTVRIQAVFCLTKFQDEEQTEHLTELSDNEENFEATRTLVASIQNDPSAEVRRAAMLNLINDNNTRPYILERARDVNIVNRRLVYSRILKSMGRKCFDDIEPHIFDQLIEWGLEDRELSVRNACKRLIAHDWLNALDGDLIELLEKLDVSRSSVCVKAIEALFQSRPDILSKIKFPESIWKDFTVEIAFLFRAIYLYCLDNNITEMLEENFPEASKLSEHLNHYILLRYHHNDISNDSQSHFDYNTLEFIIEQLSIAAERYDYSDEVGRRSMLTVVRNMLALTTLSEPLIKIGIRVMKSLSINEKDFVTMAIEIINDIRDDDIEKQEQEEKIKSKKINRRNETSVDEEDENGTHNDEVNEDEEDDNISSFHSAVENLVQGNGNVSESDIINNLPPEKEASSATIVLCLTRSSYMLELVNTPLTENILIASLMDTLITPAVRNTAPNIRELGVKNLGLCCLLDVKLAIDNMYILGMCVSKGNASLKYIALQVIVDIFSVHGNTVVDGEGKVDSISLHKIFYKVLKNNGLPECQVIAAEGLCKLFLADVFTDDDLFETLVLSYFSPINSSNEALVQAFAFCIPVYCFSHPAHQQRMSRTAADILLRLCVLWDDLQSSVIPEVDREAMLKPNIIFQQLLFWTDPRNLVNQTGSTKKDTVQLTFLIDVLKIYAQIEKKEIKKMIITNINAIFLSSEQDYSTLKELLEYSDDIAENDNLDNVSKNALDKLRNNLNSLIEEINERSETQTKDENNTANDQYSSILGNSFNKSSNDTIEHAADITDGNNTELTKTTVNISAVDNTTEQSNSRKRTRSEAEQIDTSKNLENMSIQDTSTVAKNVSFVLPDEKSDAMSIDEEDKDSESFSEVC

binding result [1]: binds
binding result [2]: binds
B1: Brn1 (S. cerevisiae condensin kleisin subunit) (natural protein)
chain: MTTQLRYENNDDDERVEYNLFTNRSTMMANFEEWIKMATDNKINSRNSWNFALIDYFYDLDVLKDGENNINFQKASATLDGCIKIYSSRVDSVTTETGKLLSGLAQRKTNGASNGDDSNGGNGEGLGGDSDEANIEIDPLTGMPISNDPDVNNTRRRVYNRVLETTLVEFETIKMKELDQELIIDPLFKKALVDFDEGGAKSLLLNTLNIDNTARVIFDASIKDTQNVGQGKLQRKEEELIERDSLVDDENEPSQSLISTRNDSTVNDSVISAPSMEDEILSLGMDFIKFDQIAVCEISGSIEQLRNVVEDINQAKDFIENVNNRFDNFLTEEELQAAVPDNAEDDSDGFDMGMQQELCYPDENHDNTSHDEQDDDNVNSTTGSIFEKDLMAYFDENLNRNWRGREHWKVRNFKKANLVNKESDLLEETRTTIGDTTDKNTTDDKSMDTKKKHKQKKVLEIDFFKTDDSFEDKVFASKGRTKIDMPIKNRKNDTHYLLPDDFHFSTDRITRLFIKPGQKMSLFSHRKHTRGDVSSGLFEKSTVSANHSNNDIPTIADEHFWADNYERKEQEEKEKEQSKEVGDVVGGALDNPFEDDMDGVDFNQAFEGTDDNEEASVKLDLQDDEDHKFPIRENKVTYSRVSKKVDVRRLKKNVWRSINNLIQEHDSRKNREQSSNDSETHTEDESTKELKFSDIIQGISKMYSDDTLKDISTSFCFICLLHLANEHGLQITHTENYNDLIVNYEDLATTQAAS
